Assay results as given in patent publication US20220017615A1.
Each block holds one substance with its values, some of them ahead of it.

Tests used:
[1] = biological target: SIRPα protein with hFc tag (SIRPα-hFc) (UniProt P78324); assay: ELISA on coated SIRPα-hFc 1 µg/mL; control 0.2 µg/ml
[2] = biological target: SIRPα protein with hFc tag (SIRPα-hFc) (UniProt P78324); assay: ELISA on coated SIRPα-hFc 1 µg/mL; control 1 µg/ml
[3] = biological target: SIRPα protein with hFc tag (SIRPα-hFc) (UniProt P78324); assay: ELISA on coated SIRPα-hFc 1 µg/mL; control 0.0003 µg/ml
[4] = biological target: SIRPα protein with hFc tag (SIRPα-hFc) (UniProt P78324); assay: ELISA on coated SIRPα-hFc 1 µg/mL; control 0.04 µg/ml
[5] = biological target: SIRPα protein with hFc tag (SIRPα-hFc) (UniProt P78324); assay: ELISA on coated SIRPα-hFc 1 µg/mL; control 0.008 µg/ml
[6] = biological target: SIRPα protein with hFc tag (SIRPα-hFc) (UniProt P78324); assay: ELISA on coated SIRPα-hFc 1 µg/mL; control 0.00001 µg/ml
[7] = biological target: SIRPα protein with hFc tag (SIRPα-hFc) (UniProt P78324); assay: ELISA on coated SIRPα-hFc 1 µg/mL; control 0.0016 µg/ml
[8] = biological target: SIRPα protein with hFc tag (SIRPα-hFc) (UniProt P78324); assay: ELISA on coated SIRPα-hFc 1 µg/mL; control 0.0001 µg/ml
[9] = biological target: human CD47, full length, on transfected cells (human) (UniProt Q08722); assay: FACS, HEK293 clone 293F-hCD47 1E8
[10] = biological target: human CD47, full length, on transfected cells (human) (UniProt Q08722); assay: FACS, HEK293 clone 293F-hCD47 1F10
[11] = biological target: human CD47, full length, on transfected cells (human) (UniProt Q08722); assay: FACS, HEK293 clone 293F-hCD47 1C8
[12] = biological target: human CD47, full length, on transfected cells (human) (UniProt Q08722); assay: FACS, HEK293 clone 293F-hCD47 1B8
[13] = biological target: human CD47, full length, on transfected cells (human) (UniProt Q08722); assay: FACS, HEK293 clone 293F-hCD47 1F11
[14] = biological target: human CD47, full length, on transfected cells (human) (UniProt Q08722); assay: FACS, HEK293 clone 293F-hCD47 1F6
[15] = biological target: human CD47, full length, on transfected cells (human) (UniProt Q08722); assay: FACS, HEK293 clone 293F-hCD47 1C2
[16] = biological target: human CD47, full length, on transfected cells (human) (UniProt Q08722); assay: FACS, HEK293 clone 293F-hCD47 1B4
[17] = biological target: human CD47, full length, on transfected cells (human) (UniProt Q08722); assay: FACS, HEK293 clone 293F-hCD47 1B11
[18] = biological target: human CD47, full length, on transfected cells (human) (UniProt Q08722); assay: FACS, HEK293 clone 293F-hCD47 1A8
[19] = biological target: human CD47, full length, on transfected cells (human) (UniProt Q08722); assay: FACS, HEK293 clone 293F-hCD47 2E2
[20] = biological target: human CD47, full length, on transfected cells (human) (UniProt Q08722); assay: FACS, HEK293 clone 293F-hCD47 1F8
[21] = biological target: human CD47, full length, on transfected cells (human) (UniProt Q08722); assay: FACS, HEK293 clone 293F-hCD47 1D10
[22] = biological target: human CD47, full length, on transfected cells (human) (UniProt Q08722); assay: FACS, HEK293 clone 293F-hCD47 1B6
[23] = biological target: human CD47, full length, on transfected cells (human) (UniProt Q08722); assay: FACS, HEK293 clone 293F-hCD47 1B5
[24] = biological target: human CD47, full length, on transfected cells (human) (UniProt Q08722); assay: FACS, HEK293 clone 293F-hCD47 1C4

Sequence of SIRPα protein with hFc tag (SIRPα-hFc) (P78324 31-370): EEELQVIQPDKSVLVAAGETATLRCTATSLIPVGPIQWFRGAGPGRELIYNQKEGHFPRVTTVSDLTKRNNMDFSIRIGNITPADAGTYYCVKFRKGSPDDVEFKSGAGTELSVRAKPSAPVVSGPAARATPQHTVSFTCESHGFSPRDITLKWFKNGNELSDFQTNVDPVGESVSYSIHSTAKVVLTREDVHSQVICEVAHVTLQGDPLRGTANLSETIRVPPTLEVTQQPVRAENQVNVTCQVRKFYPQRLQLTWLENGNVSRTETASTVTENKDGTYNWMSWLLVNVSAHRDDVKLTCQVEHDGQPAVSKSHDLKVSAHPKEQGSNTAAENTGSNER

OD450 nm [1]: 0.11
OD450 nm [2]: 0.19
OD450 nm [3]: 0.07
OD450 nm [4]: 0.1
OD450 nm [5]: 0.06
OD450 nm [6]: 0.06
OD450 nm [7]: 0.08
OD450 nm [8]: 0.07
Substance: Control protein (non-CD47 fusion protein)

Mean fluorescence intensity [9]: 2.79
Positive cells (%) [9]: 1.29%
Mean fluorescence intensity [10]: 3.64
Positive cells (%) [10]: 3.85%
Mean fluorescence intensity [11]: 2.15
Positive cells (%) [11]: 0.81%
Mean fluorescence intensity [12]: 3.11
Positive cells (%) [12]: 3.08%
Mean fluorescence intensity [13]: 3.73
Positive cells (%) [13]: 3.78%
Mean fluorescence intensity [14]: 2.94
Positive cells (%) [14]: 2.35%
Mean fluorescence intensity [15]: 2.47
Positive cells (%) [15]: 1.85%
Mean fluorescence intensity [16]: 2.56
Positive cells (%) [16]: 1.6%
Mean fluorescence intensity [17]: 2.87
Positive cells (%) [17]: 4.7%
Mean fluorescence intensity [18]: 3.2
Positive cells (%) [18]: 2.19%
Mean fluorescence intensity [19]: 2.79
Positive cells (%) [19]: 2.42%
Mean fluorescence intensity [20]: 2.66
Positive cells (%) [20]: 3.13%
Mean fluorescence intensity [21]: 3.19
Positive cells (%) [21]: 2.38%
Mean fluorescence intensity [22]: 3.22
Positive cells (%) [22]: 5.7%
Mean fluorescence intensity [23]: 2.72
Positive cells (%) [23]: 0.85%
Mean fluorescence intensity [24]: 3.84
Positive cells (%) [24]: 2.55%
Substance: IgG subtype control (antibody)
